# Laboratory results as given in US20160311918A1, “Anti-Ron Monoclonal Antibodies as a Cytotoxic Drug Delivery System for Targeted Cancer Therapy” (TEXAS TECH UNIVERSITY SYSTEM, priority 2013, published 2016).
# Entries after “also recorded” stand apart in the source; their conditions may differ.
# Assays:
# RON = RON (Homo sapiens, UniProt Q04912); assay: Immunofluorescent localization of cytoplasmic RON in HT29 cells; format: cell-based; details: 5 μg/ml, 6 h
# [1] = test system: HT29-Luc2 xenograft tumor; assay: HT29-luc2 mouse xenograft tumor model; format: in vivo; details: for tumor growth inhibited: five injection regimen
# Protocol: Athymic nude mice (five mice per group) were subcutaneously inoculated with 5×10^6 HCT116, HT29, and SW620 cells followed by injection of 20 mg/kg Zt/g4-DM1 through tail vein. FIG. 4A: Tumor growth from HT29-luc2 or HCT116-luc2 cells was determined by measuring average photon intensity (left panel). SW620-derived tumor growth was monitored by measuring tumor volume (FIG. 4B) (right panel). FIG. 4C: Tumor images with photon emission or caliper measurement at day 16 are presented. The scale from minimal to maximal is set at 300 to 35,000 photons per second. The percentages of inhibition were calculated from the average photon emission (for HT29 and HCT116 cells) or tumor volume (for SW620 cells). FIG. 4D: Individual tumors from different groups were weighed at day 28. The percentages of inhibition were calculated by a formula: (average tumor weight from Zt/g4-DM1 treated group/average tumor weight from control mice)×100%;
# FIGS. 5A to 5F show the evaluation of different doses of Zt/g4-DM1 on tumor growth and RON expression. FIG. 5A: Effect of multi-dose of Zt/g4-DM1 on tumor growth was tested in HT29 cell-induced tumors. Tumor-bearing mice were treated with different doses of Zt/g4-DM1 every four days for a total of five injections ( ? ). Tumor growth was determined by the average bioluminescence intensity. FIG. 5B: An IC50 value based on the average bioluminescence intensity from individual groups at day 31 was calculated using GraphPad Prism 6 software. FIG. 5C: Bioluminescence images of individual tumors from each group at day 31 are shown. The percentages of inhibition were calculated from the average photon emission. The color scale from minimal to maximal is set at 300 to 35,000 photons per second. FIG. 5D: Individual tumors from different groups were collected and weighed at day 31, 35, and 43, respectively. The percentages of inhibition were calculated as detailed in FIG. 4C. FIG. 5E: Samples of HT29 cell-derived xenograft tumors from both control and 15 mg/kg Zt/g4-DM1-treated mice at day 31 were processed for histological examination. […] FIG. 5F: Western blot analysis of RON expression in tumors samples from both control and 15 mg/kg Zt/g4-DM1-treated mice. Densitometry analysis was performed to determine the levels of RON expression;
# (§1) Mouse xenograft CRC model and anti-RON ADC treatment: All mice studies were approved by the institutional animal care committee. Female athymic nude mice at 6 weeks of age (Taconic, Cranbury, N.J.) were injected with 5×10^6 HT29-Luc2, HCT116-luc2, or SW620 cells in the subcutaneous space of the right flank as previously described (18,33). Mice were randomized into different groups (five mice per group). […] The single-dose group received a tail vein injection of 20 mg/kg Zt/g4-DM1 in 0.1 ml PBS followed by observation for 28 days. The multi-dose study was performed by treating mice with Zt/g4-DM1 at 1, 3, 7, 10, and 15 mg/kg every four days for a total of five injections. Bioluminescence from individual tumors was measured every four days using Caliper IVIS image system (PerkinElmer). Tumor volumes from SW620-derived tumors were measured according to a formula: V=pi/6×1.58×(length×width)^3/2 (18,33). Animals were euthanized when tumor volumes exceeded 2000 mm^3 or if tumors became necrotic or ulcerated through the skin.
# (§2) The inventors first determined the efficacy of a single dose of Zt/g4-DM1 at 20 mg/kg body weight on tumors derived from HCT116, HT29, and SW620 cells. Tumor growth by HCT116-luc2 and HT29-luc2 cells was measured by bioluminescence emitted from tumor cells. SW620-mediated tumors were evaluated by tumor volume (18,34).
# RON-β chain (mature RON) = target: T1, RON-β chain (mature RON) (Homo sapiens, UniProt Q04912); assay: Western blot of RON expression in CRC cells; format: cell-based; details: 36 h after treatment, 5 μg/ml
# T1 construct: We selected CRC cell lines LoVo, DLD1, HT29, HCT116, and SW620 expressing variable levels of RON as the cellular model; host or cells: HCT116, HT29, SW620
# [2] = test system: CRC cell-mediated tumor growth; assay: Mouse xenograft CRC models, single dose, all three lines; format: in vivo; details: single dose 20 mg/kg
# Protocol: as §1
# as §2, with “(18,34). […]” for “(18,34).”
# [3] = test system: PDAC cell-mediated tumor growth; assay: Mouse xenograft PDAC model; format: in vivo; details: mouse PDAC xenograft models
# Protocol: Mouse xenograft PDAC model and anti-RON ADC treatment: Female athymic nude mice were injected with 5×106 L3.6PL, BxPC-3, or FG cells into the subcutaneous space of the right flank. Treatment began when all tumors have reached an average tumor volume of 100 to 200 mm3 The single-dose effect was studied by injection of 20 mg/kg Zt/g4-DM1. Tumor volumes were determined every four days using a previously described formula: V=pi/6×1.58×(length×width)3/2.
# [4] = 15 mg/kg every four days x5, day 31
# Sequence of RON (Q04912 310-1400 limits assumed): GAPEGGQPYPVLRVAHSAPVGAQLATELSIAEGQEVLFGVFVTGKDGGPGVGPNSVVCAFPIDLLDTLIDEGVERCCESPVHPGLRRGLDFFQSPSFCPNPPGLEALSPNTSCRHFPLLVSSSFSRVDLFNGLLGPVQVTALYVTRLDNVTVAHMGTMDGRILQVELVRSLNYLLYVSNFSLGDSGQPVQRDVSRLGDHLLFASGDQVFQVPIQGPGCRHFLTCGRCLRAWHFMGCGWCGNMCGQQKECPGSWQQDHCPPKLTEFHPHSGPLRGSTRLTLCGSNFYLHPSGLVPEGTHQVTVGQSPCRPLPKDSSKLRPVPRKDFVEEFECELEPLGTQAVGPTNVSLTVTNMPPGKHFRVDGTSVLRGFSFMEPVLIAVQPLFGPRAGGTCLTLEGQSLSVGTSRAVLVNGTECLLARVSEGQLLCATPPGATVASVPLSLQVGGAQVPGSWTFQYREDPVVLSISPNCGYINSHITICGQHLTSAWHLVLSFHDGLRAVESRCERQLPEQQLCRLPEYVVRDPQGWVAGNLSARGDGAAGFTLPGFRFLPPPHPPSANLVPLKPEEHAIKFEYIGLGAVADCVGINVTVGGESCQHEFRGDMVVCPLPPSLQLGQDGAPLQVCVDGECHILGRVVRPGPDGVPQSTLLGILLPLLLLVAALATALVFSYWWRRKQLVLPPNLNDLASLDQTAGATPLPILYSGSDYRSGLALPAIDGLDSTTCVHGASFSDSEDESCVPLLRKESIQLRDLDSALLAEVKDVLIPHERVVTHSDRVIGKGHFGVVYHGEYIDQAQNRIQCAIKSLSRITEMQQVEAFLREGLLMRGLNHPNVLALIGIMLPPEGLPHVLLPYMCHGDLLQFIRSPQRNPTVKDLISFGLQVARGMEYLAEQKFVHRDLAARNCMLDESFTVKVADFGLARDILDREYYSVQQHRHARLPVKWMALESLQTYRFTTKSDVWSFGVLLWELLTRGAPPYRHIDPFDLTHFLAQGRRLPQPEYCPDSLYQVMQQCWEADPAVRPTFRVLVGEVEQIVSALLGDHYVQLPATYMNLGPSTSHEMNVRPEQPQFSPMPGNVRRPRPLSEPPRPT
# Sequence of RON (Q04912 25-304 limits assumed): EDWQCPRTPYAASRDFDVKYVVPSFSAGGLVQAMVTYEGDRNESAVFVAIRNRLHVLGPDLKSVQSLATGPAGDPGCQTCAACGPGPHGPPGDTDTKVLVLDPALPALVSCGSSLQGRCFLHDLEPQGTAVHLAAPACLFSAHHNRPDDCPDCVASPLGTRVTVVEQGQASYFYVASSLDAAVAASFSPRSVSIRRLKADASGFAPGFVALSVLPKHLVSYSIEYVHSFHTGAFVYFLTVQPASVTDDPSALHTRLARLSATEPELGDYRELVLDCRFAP
# T1 sequence (Q04912 310-1400 limits assumed): as the sequence (Q04912 310-1400 limits assumed) above
# T1 sequence (Q04912 25-304 limits assumed): as the sequence (Q04912 25-304 limits assumed) above
molecule,measurement,setting,value
"Zt/g4-DM1: anti-RON mouse mAb Zt/g4 conjugated to maytansinoid DM1 via non-reducible thioether linkage (SMCC), DAR about 4:1 (conjugate) VH: EVQLQQSGAELVKPGASVKLSCTTSGFNIIDTYIHWVNQKPDQGLEWIGRIDPADGNRKSDPKFQVKATITVDTSSNTAYLQLSSLTSGDTAVYYCARGYGNLNAMDSWGQGTSVTVSS VL: DIQMNQSPSSLSASLGDTITITCHASQNINVWLNWYQQKPGNIPKLLIYKASNLHTGVPSRFSGSGSGTGFTLTISSLQPEDIATYYCQQGQSYPLTFGGGTKLEIK",RON endocytosis by immunofluorescence,RON,intracellular localization of internalized RON occurred at 37 °C
same,inhibition of tumor growth,[1]; 1 mg/kg every four days x5,no inhibition of tumor growth
same,inhibition of tumor growth,[1]; 3 mg/kg every four days x5,no inhibition of tumor growth
same,inhibition by average photon emission,"[1]; 7 mg/kg every four days x5, day 19 to 43",more than 80%
same,inhibition by tumor weight,"[1]; 7 mg/kg every four days x5, day 43",Significant inhibition was still observed
same,tumor growth inhibited,[1]; 7 mg/kg,more than 90%
same,inhibition by average photon emission,"[1]; 10 mg/kg every four days x5, day 31",More than 95%
same,inhibition by tumor weight,"[1]; 10 mg/kg every four days x5, day 43",Significant inhibition was still observed
same,tumor growth inhibited,[1]; 10 mg/kg,more than 90%
same,inhibition at average tumor weight,[1]; [4],90%
same,inhibition by average photon emission,[1]; [4],More than 95%
same,average percentage of dead areas in a tumor mass,"[1]; 15 mg/kg, day 31, H&E staining",65%±7.4
same,RON expression in treated tumors,"[1]; 15 mg/kg, day 31, Western blot, control 100%",16.44%±5.75
same,tumor growth inhibited,[1]; 15 mg/kg,more than 90%
same,IC50 dose (dose achieving 50% tumor inhibition),"[1]; multi-dose, average photons at day 31",5.01 mg/kg
same,inhibition by average bioluminescence intensity,"[1]; single dose 20 mg/kg, day 16",More than 95%
same,inhibition rate by average tumor weight,"[1]; single dose 20 mg/kg, day 28",50.98%
same,RON-β chain detected,RON-β chain (mature RON),Less than 20%
same,duration of tumor growth delay,[2],up to 20 days
same,duration of efficacy without signs of tumor regrowth,[2]; day 4 to day 16,up to 12 days
same,inhibition of PDAC xenograft tumor growth,[3],highly effective in inhibiting PDAC cell-mediated tumor growth; also recorded: highly effective in inhibition of xenograft PDAC growth
